Laboratory results reported in patent US20220306986A1, “NON-INVASIVE METHODS FOR SELECTIVELY ENRICHING PLURIPOTENT CELLS” (MEMORIAL SLOAN-KETTERING CANCER CENTER, priority 2019, published 2022).

Columns and labels:
Type in all cases: cell-based, mouse
ESCs = test: Colony formation assay (alkaline phosphatase staining) after pulse treatment; settings: during transient glutamine withdrawal and in the presence of exogenous glutamine; FIG. 7H, 7I
Procedure: For transient glutamine withdrawal (“pulse”) experiments, cells were initially plated in standard S/L medium as described above. The following day, cells were washed with PBS and then changed to experimental medium containing a 1:1 mix of glutamine-free DMEM and glutamine-free Neurobasal medium including 10% dialyzed FBS, 2-mercaptoethanol, LIF, and containing (“Ctrl”) or lacking (“Pulse”) L-glutamine as indicated. 24 hours later, cells were washed with PBS and then returned to glutamine-replete medium (“Recover”). 24 hours later, cells were subjected to either image analysis, flow cytometry, or plated for colony formation assays as indicated. For glutamine pulse experiments in human ESCs, cells were initially plated at a density of 300,000 cells/well in a tissue-culture treated polystyrene 12-well plate coated with vitronectin (Thermo Fisher Scientific, A14700) in E8 medium (Thermo Fisher Scientific, A1517001) containing 10 uM ROCK inhibitor Y-27632 (Selleck Chemicals S1049). 24 hrs after plating, medium was changed to modified E8 medium containing: DMEM high glucose without glutamine (Thermo Fisher 11960044), 10.7 mg/L Transferrin (Sigma T0665), 64 mg/L L-Ascorbic Acid (Sigma A890), 14 ug/L Sodium Selenite (Sigma S5261), 543 mg/L Sodium Bicarbonate (Research Products International 144558), 19.4 mg/L insulin (Sigma 19278), 100 ug/L bFGF (EMD Millipore GF003AF), 2 ug/L TGFβ1 (Peprotech 10021), and 2 mM L-glutamine. After 24 hrs of culture in modified E8 medium, medium was changed to modified E8 medium containing 2 mM or 0 mM L-glutamine for 24 hrs. All cells were then changed to modified E8 medium containing 2 mM L-glutamine and cultured for 24 hrs before harvest for analysis. […] For ESC colony formation assays, colonies were scored manually in a blinded fashion. For reprogramming experiments, alkaline-phosphatase colonies were scored automatically using ImageJ (NIH). Briefly, images of each well were binarized using the Default function and particles greater than 8 pixels with a circularity of 0.7-1.0 were counted.

[1] = system: ESCs expressing the G-CSF-activated LIF receptor transgene; test: GC-MS isotope tracing of [U-13C]glucose or [U-13C]glutamine
Procedure: Steady state TCA cycle metabolite measurements. Cells were seeded in standard S/L medium in 6-well plates. 24 hours later, cells were washed with PBS and changed into experimental medium containing a 1:1 mix of glutamine-free DMEM and glutamine-free Neurobasal medium including 10% dialyzed FBS, 2-mercaptoethanol, LIF, and 2 mM L-glutamine. The next day, cells were washed with PBS and subjected to the same experimental medium either with or without 2 mM glutamine. 8 hours later, metabolites were extracted with 1 mL ice-cold 80% methanol containing 2 μM deuterated 2-hydroxyglutarate (D-2-hydroxyglutaric-2,3,3,4,4-d5 acid, d5-2HG) as an internal standard. After overnight incubation at −80° C., lysates were harvested and centrifuged at 21,000 g for 20 minutes to remove protein. Extracts were dried in an evaporator (Genevac EZ-2 Elite) and resuspended by incubating at 30° C. for 2 hours in 50 μL of 40 mg/mL methoxyamine hydrochloride in pyridine. Metabolites were further derivatized by addition of 80 μL of MSTFA+1% TCMS (Thermo Scientific) and 70 μl ethyl acetate (Sigma) and then incubated at 37° C. for 30 minutes. Samples were analyzed using an Agilent 7890A GC coupled to Agilent 5977C mass selective detector. The GC was operated in splitless mode with constant helium gas flow at 1 mL/min. 1 μl of derivatized metabolites was injected onto an HP-5MS column and the GC oven temperature ramped from 60° C. to 290° C. over 25 minutes. Peaks representing compounds of interest were extracted and integrated using MassHunter software (Agilent Technologies) and then normalized to both the internal standard (d5-2HG) peak area and protein content of duplicate samples as determined by BCA protein assay (Thermo Scientific). Ions used for quantification of metabolite levels are as follows: d5-2HG m/z 354; αKG, m/z 304; aspartate, m/z 334; citrate, m/z 465; fumarate, m/z 245; glutamate, m/z 363; malate, m/z 335 and succinate, m/z 247. All peaks were manually inspected and verified relative to known spectra for each metabolite.
Isotope tracing studies. For isotope tracing studies, cells were seeded in standard S/L medium in 6-well plates. 24 hours later, cells were washed with PBS and changed into experimental medium containing a 1:1 mix of glutamine-free DMEM and glutamine-free Neurobasal medium including 10% dialyzed FBS, 2-mercaptoethanol, LIF, and 2 mM L-glutamine. […] Enrichment of ^13C was assessed by quantifying the abundance of the following ions: aKG, m/z 304-318; aspartate, m/z 334-346; citrate, m/z 465-482; fumarate, m/z 245-254; glutamate, m/z 363-377 and malate, m/z 335-347. […]

[2] = system: Stat3 target gene Tfcp2l1 and key transcription factors associated with naïve pluripotency; test: qRT-PCR of STAT3-target genes and other key pluripotency genes; settings: ESCs expressing GCSF-activated LIF receptor; FIG. 5B
Procedure: RNA was isolated from six-well plates using Trizol (Invitrogen) according to manufacturer instructions. 200 ng RNA was used for cDNA synthesis using iScript (BioRad). Quantitative real-time PCR analysis was performed in technical triplicate using QuantStudio 7 Flex (Applied Biosystems) with Power SYBR Green (Life Technologies). All data were generated using cDNA from triplicate wells for each condition. Actin was used as an endogenous control for all experiments. The following primers were used: […]

JAK/STAT3 signaling = test: Immunoblot of phospho-STAT3 and total STAT3; settings: ESCs expressing chimeric GCSF-responsive LIF receptor; FIG. 5A
Procedure: Protein lysates were extracted in 1× radioimmunoprecipitation assay buffer (Cell Signaling Technology), separated by SDS—polyacrylamide gel electrophoresis and transferred to nitrocellulose membranes (Bio-Rad). Membranes were blocked in 3% milk in Tris-buffered saline with 0.1% Tween20 (TBST) and incubated at 4° C. with primary antibodies overnight. After TBST washes the next day, membranes were incubated with horseradish peroxidase-conjugated secondary antibodies for 2 h, incubated with enhanced chemiluminescence (Thermo Fisher Scientific) and imaged with an SRX-101A X-ray Film Processor (Konica Minolta). The antibodies used (at 1:1,000 unless otherwise stated) were: Nanog (catalogue no. AF2729; R&D Systems); KLF4 (catalogue no. ab129473; Abcam), phospho-Stat3 (catalogue no. 9138; Cell Signaling Technology); Stat3 (124146, catalogue no. 9139; Cell Signaling Technology), and α-Tubulin (1:10,000, catalogue no. 79026; Sigma-Aldrich).

CCOC(=O)CCNc1cc(N2CCc3ccccc3CC2)nc(-c2ccccn2)n1 [GSK-J4]
ESC self-renewal (Nanog-GFP, colony formation) (ESCs): impaired ESC self-renewal

B1: GCSF: granulocyte colony-stimulating factor, activates the chimeric LIF receptor transgene (protein, UniProt P09919 31-207, looked up)
Granulocyte …: TPLGPASSLPQSFLLKCLEQVRKIQGDGAALQEKLVSECATYKLCHPEELVLLGHSLGIPWAPLSSCPSQALQLAGCLSQLHSGLFLYQGLLQALEGISPELGPTLDTLQLDVADFATTIWQQMEELGMAPALQPTQGAMPAFASAFQRRAGGVLVASHLQSFLEVSYRVLRHLAQP
intracellular pools of glutamate when deprived of exogenous glutamine ([1]; [U-13C]glucose, 4 h glutamine withdrawal, FIG. 5C): able to use glucose and other anaplerotic substrates to maintain intracellular pools of glutamate | fraction of TCA cycle metabolites derived from oxidative decarboxylation of glucose-derived pyruvate (m+2 isotopologues) ([1]; [U-13C]glucose, FIG. 1B): increased | fraction of metabolites derived from glutamine catabolism ([1]; [U-13C]glutamine, FIG. 1D): decreased | fraction of glutamate derived from glutamine ([1]; [U-13C]glutamine, control ESCs more than 80%, FIG. 1D): 60% | expression of Tfcp2l1 and naïve pluripotency transcription factors [2]: enhancing expression | JAK/STAT3 signaling (phospho-STAT3) (JAK/STAT3 signaling): elevated and sustained JAK/STAT3 signaling
